Experimental data as given in article PMC2734247, “The Chlamydia Type III Secretion System C-ring Engages a Chaperone-Effector Protein Complex” (PLoS Pathogens, 2009).

Tests used:
[1] = biological target: Cap1-6xHis (aa 1-298) (C. trachomatis serovar D); assay: SEC; proteins eluted from Ni2+-NTA (complexes formed by co-expression in E. coli) on a 16/60 Sephacryl S-100 HR column; 10 mM Tris-HCl/50 mM phosphate buffer/150 mM NaCl pH 8.0; sizes by a low molecular weight calibration kit
[2] = biological target: the molecule itself; assay: cross-linking; purified 6xHis-Mcsc treated with 0.25-1 mM DSP for 20 min at 4 C; SDS-PAGE with or without 50 mM DTT; immunoblot with Mcsc antibodies
Ct618-6xHis (aa 1-189) = biological target: T1, Ct618-6xHis (aa 1-189) (C. trachomatis serovar D, UniProt O84623 1-189); assay: SEC; proteins eluted from Ni2+-NTA (complexes formed by co-expression in E. coli) on a 16/60 Sephacryl S-100 HR column; 10 mM Tris-HCl/50 mM phosphate buffer/150 mM NaCl pH 8.0; sizes by a low molecular weight calibration kit; details: both partners purified
T1 construct: Ct618 of C. trachomatis, amino-terminal domain, aa 1-189; printed as Ct618-6xHis; also called 6xHis-tagged Ct618; amino-terminal domain of Ct618; source: E. coli BL21 DE3 (bicistronic pET-24d with Mcsc), in lysate; purified (Ni2+-NTA agarose, gel filtration)
T1 sequence: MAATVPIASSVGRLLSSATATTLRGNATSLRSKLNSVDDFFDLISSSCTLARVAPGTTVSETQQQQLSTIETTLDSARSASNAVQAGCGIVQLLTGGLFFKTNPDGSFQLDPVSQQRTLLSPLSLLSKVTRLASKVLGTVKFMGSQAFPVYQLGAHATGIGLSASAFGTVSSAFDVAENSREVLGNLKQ

Molecule: Mcsc, untagged, co-expressed from a bicistronic vector (from UniProt O84262 1-163) (natural protein)
- stoichiometry N (Mcsc subunits per effector protein) [1]: 2

B1: 6xHis-Mcsc (natural protein)
chain: MTTWTLNHNNLTKFLTHAQLEPSLERESGLIYITVPAGEHELPLFFVIRNEGEVLQLVCYFPYQIQQNQRDTTARLLHLVNRDIDIPGFGMDEEQNIIFYRLVIPCLKGEINEDLLRVYIDTIKLICDSFFHAIGLISTGNMDLDELKKQAKLENNQSDQLEP
notes: Ct260 (Mcsc) of C. trachomatis, amplified from serovar D genomic DNA; printed as 6xHis-Mcsc, vector pET15b; also called hexahistidine-tagged Mcsc (Ct260); 6xHis-tagged Mcsc dimers; source: E. coli BL21 DE3 (pET15b-Mcsc), purified (Ni2+-NTA agarose, gel filtration)
- stoichiometry N [2]: 2

B2: Mcsc, untagged, co-expressed from a bicistronic vector (natural protein)
chain: B1 chain
notes: Ct260 (Mcsc) of C. trachomatis, amplified from serovar D genomic DNA; also called untagged Mcsc; Ct260; source: E. coli BL21 DE3 (bicistronic pET-24d), in lysate; co-purified with the 6xHis-tagged effector (Ni2+-NTA agarose, gel filtration)
- stoichiometry N (Ct618-6xHis (aa 1-189)): 2 Mcsc subunits per effector protein
